# Target: T1, human LY6D (human, UniProt Q14210 21-98, GPI anchor)
# T1 construct: whole, on cells; On living cells for FCM, cell ELISA and microscopy; Solubilised from biotinylated cells with surfactant (or released by PI-PLC) for immunoprecipitation and western blot; also called E48 antigen
# T1 sequence (looked up): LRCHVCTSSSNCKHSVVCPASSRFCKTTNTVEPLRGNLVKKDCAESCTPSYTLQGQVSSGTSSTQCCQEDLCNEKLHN
# Experiment: confocal laser microscopy, cell ELISA and FCM on X-ray-irradiated MCF10A cells; the antigen is identified as LY6D later in the filing
# Experimental: X-ray-irradiated cells and non-irradiated cells were prepared, and antibodies specific to the irradiated cells were screened for by cell ELISA. That is, reactivity of antibody to both cells was examined by ELISA. A blocking solution (5% skim milk/0.05% NaN₃/PBS) was added at 200 μL/well to both cells, followed by blocking at 37° C. for 2 hours. The blocking solution was removed and the cells were washed with PBS. The supernatant of the above antibody expression culture was added at 100 μL/well, followed by reaction at 37° C. for 1 hour. The resultant was washed five times with PBS. Rabbit anti-cp3 (1 μg/mL) diluted with PBS/0.05% Tween 20 was added at 100 μL/well, followed by reaction at 37° C. for 1 hour. The resultant was washed five times with PBS. Anti-Rabbit IgG (H+L)-HRP diluted 2000-fold with PBS/0.05% Tween 20 was further added at 100 μL/well, followed by reaction at 37° C. for 1 hour. The resultant was washed five times with PBS. […] Then, the absorbance at 492 nm was measured by SPECTRAmax340PC (Molecular Devices). Antibodies showing obvious positive reactivity specific to only the irradiated cells were selected and DNA sequences of the phages were analyzed.
# Selection of clones from the antibody library was carried out as follows. […] The 20 candidates were analyzed by flow cytometry (FCM).
binder,measurement,value
"E33-139 monoclonal antibody (scFv, Human phage antibody from the AIMS5 library; No result is reported for the IgG; not shown: clones were tested as scFv-CL fused to cp3 or to the protein A domain (scFv-CL-P)) scFv: MAEVQLVESGGGLVQPGRSLRLSCAASGFTFDDYAMHWVRQAPGKGLEWVSGISWNSGSIGYADSVKGRFTISRDNAKNSLYLQMNSLRAEDTALYYCAKTGILDAFDIWGQGTTVTVSRGGGGSGGGGSGGGGSMAQSVLTQPPSVSGAPRQTVTISCSGSSSNIGQNSVTWYQRLPGEAPKLLIYYDDLLHSGVSDRFSGSKSGTSASLAISGLQSEDEAEYYCASWDDSLKGPVFGGGTKLTVLGQPKAAPSVTLFPPSSEELQANKATLVCLISDFYPGAVTVAWKADSSPVKAGVETTTPSKQSNNKYAASSYLSLTPEQWKSHKSYSCQVTHEGSTVEKTVAPTECSAR",binding result,binds

# Reference: patent publication US20140004536A1 (PERSEUS PROTEOMICS, published 2014)
